B1: Ad6 hexon, on wild-type human adenovirus type 6 virions (natural protein)
chain: ATPSMMPQWSYMHISGQDASEYLSPGLVQFARATETYFSLNNKFRNPTVAPTHDVTTDRSQRLTLRFIPVDREDTAYSYKARFTLAVGDNRVLDMASTYFDIRGVLDRGPTFKPYSGTAYNALAPKGAPNSCEWEQNETAQVDAQELDEEENEANEAQAREQEQAKKTHVYAQAPLSGIKITKEGLQIGTADATVAGAGKEIFADKTFQPEPQVGESQWNEADATAAGGRVLKKTTPMKPCYGSYARPTNSNGGQGVMVEQNGKLESQVEMQFFSTSTNATNEVNNIQPTVVLYSEDVNMETPDTHLSYKPKMGDKNAKVMLGQQAMPNRPNYIAFRDNFIGLMYYNSTGNMGVLAGQASQLNAVVDLQDRNTELSYQLLLDSIGDRTRYFSMWNQAVDSYDPDVRIIENHGTEDELPNYCFPLGGIGITDTFQAVKTTAANGDQGNTTWQKDSTFAERNEIGVGNNFAMEINLNANLWRNFLYSNIALYLPDKLKYNPTNVEISDNPNTYDYMNKRVVAPGLVDCYINLGARWSLDYMDNVNPFNHHRNAGLRYRSMLLGNGRYVPFHIQVPQKFFAIKNLLLLPGSYTYEWNFRKDVNMVLQSSLGNDLRVDGASIKFDSICLYATFFPMAHNTASTLEAMLRNDTNDQSFNDYLSAANMLYPIPANATNVPISIPSRNWAAFRGWAFTRLKTKETPSLGSGYDPYYTYSGSIPYLDGTFYLNHTFKKVAITFDSSVSWPGNDRLLTPNEFEIKRSVDGEGYNVAQCNMTKDWFLVQMLANYNIGYQGFYIPESYKDRMYSFFRNFQPMSRQVVDDTKYKDYQQVGIIHQHNNSGFVGYLAPTMREGQAYPANVPYPLIGKTAVDSITQKKFLCDRTLWRIPFSSNFMSMGALTDLGQNLLYANSAHALDMTFEVDPMDEPTLLYVLFEVFDVVRVHQPHRGVIETVYLRTPFSAGNATT
B2: mouse prothrombin (FII) (natural protein)
chain: not shown
modifications: gamma-carboxylated glutamate residues in the Gla domain
B3: bovine prothrombin (FII) (natural protein)
chain: not shown
modifications: gamma-carboxylated glutamate residues in the Gla domain
B4: human coagulation factor X (natural protein)
chain 1: ANSFLEEMKKGHLERECMEETCSYEEAREVFEDSDKTNEFWNKYKDGDQCETSPCQNQGKCKDGLGEYTCTCLEGFEGKNCELFTRKLCSLDNGDCDQFCHEEQNSVVCSCARGYTLADNGKACIPTGPYPCGKQTLER
chain 2: SVAQATSSSGEAPDSITWKPYDAADLDPTENPFDLLDFNQTQPERGDNNLTRIVGGQECKDGECPWQALLINEENEGFCGGTILSEFYILTAAHCLYQAKRFKVRVGDRNTEQEEGGEAVHEVEVVIKHNRFTKETYDFDIAVLRLKTPITFRMNVAPACLPERDWAESTLMTQKTGIVSGFGRTHEKGRQSTRLKMLEVPYVDRNSCKLSSSFIITQNMFCAGYDTKQEDACQGDSGGPHVTRFKDTYFVTGIVSWGEGCARKGKYGIYTKVTAFLKWIDRSMKTRGLPKAKSHAPEVITSSPLK
modifications: gamma-carboxylated glutamate residues in the Gla domain
B5: bovine coagulation factor X (natural protein)
chain 1: ANSFLEEVKQGNLERECLEEACSLEEAREVFEDAEQTDEFWSKYKDGDQCEGHPCLNQGHCKDGIGDYTCTCAEGFEGKNCEFSTREICSLDNGGCDQFCREERSEVRCSCAHGYVLGDDSKSCVSTERFPCGKFTQGRS
chain 2: WAIHTSEDALDASELEHYDPADLSPTESSLDLLGLNRTEPSAGEDGSQVVRIVGGRDCAEGECPWQALLVNEENEGFCGGTILNEFYVLTAAHCLHQAKRFTVRVGDRNTEQEEGNEMAHEVEMTVKHSRFVKETYDFDIAVLRLKTPIRFRRNVAPACLPEKDWAEATLMTQKTGIVSGFGRTHEKGRLSSTLKMLEVPYVDRSTCKLSSSFTITPNMFCAGYDTQPEDACQGDSGGPHVTRFKDTYFVTGIVSWGEGCARKGKFGVYTKVSNFLKWIDKIMKARAGAAGSRGHSEAPATWTVPPPLPL
modifications: gamma-carboxylated glutamate residues in the Gla domain

Holding throughout (assay): SPR
Assay [1] addresses human prothrombin (FII) (human, UniProt P00734 44-622, gamma-carboxylated glutamate residues in the Gla domain).
The target of assay [2] is T1, Ad1 hexon, on wild-type human adenovirus type 1 virions (human adenovirus type 1).
T1 chain: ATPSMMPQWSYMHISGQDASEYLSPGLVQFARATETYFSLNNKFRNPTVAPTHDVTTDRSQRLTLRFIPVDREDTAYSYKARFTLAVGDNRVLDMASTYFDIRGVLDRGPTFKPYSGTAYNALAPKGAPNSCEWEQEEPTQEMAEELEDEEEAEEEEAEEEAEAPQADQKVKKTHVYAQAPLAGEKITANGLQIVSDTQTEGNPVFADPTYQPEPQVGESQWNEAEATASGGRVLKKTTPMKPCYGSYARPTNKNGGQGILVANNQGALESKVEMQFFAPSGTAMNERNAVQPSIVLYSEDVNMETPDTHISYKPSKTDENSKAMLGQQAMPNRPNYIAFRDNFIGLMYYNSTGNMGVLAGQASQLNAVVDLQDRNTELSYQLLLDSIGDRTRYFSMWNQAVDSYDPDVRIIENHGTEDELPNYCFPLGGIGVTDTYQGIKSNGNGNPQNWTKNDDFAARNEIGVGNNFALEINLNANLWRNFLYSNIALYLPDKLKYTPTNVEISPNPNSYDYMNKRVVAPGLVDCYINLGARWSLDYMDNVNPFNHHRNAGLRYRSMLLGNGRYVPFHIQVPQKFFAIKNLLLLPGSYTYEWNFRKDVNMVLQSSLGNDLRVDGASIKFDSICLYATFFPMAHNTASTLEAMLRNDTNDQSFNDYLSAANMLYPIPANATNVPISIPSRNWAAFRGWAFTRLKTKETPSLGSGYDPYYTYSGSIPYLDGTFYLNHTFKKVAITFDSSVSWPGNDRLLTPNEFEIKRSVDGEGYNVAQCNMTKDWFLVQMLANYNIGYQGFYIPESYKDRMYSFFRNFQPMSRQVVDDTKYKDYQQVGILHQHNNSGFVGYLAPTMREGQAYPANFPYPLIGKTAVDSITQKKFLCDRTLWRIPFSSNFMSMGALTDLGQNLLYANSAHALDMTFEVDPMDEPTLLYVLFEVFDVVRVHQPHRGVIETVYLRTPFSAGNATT

For assay [3], the target named is B1.
The target of assay [4] is T2, Ad5 hexon, on wild-type human adenovirus type 5 virions (human adenovirus type 5, UniProt P04133 2-952).
T2 chain: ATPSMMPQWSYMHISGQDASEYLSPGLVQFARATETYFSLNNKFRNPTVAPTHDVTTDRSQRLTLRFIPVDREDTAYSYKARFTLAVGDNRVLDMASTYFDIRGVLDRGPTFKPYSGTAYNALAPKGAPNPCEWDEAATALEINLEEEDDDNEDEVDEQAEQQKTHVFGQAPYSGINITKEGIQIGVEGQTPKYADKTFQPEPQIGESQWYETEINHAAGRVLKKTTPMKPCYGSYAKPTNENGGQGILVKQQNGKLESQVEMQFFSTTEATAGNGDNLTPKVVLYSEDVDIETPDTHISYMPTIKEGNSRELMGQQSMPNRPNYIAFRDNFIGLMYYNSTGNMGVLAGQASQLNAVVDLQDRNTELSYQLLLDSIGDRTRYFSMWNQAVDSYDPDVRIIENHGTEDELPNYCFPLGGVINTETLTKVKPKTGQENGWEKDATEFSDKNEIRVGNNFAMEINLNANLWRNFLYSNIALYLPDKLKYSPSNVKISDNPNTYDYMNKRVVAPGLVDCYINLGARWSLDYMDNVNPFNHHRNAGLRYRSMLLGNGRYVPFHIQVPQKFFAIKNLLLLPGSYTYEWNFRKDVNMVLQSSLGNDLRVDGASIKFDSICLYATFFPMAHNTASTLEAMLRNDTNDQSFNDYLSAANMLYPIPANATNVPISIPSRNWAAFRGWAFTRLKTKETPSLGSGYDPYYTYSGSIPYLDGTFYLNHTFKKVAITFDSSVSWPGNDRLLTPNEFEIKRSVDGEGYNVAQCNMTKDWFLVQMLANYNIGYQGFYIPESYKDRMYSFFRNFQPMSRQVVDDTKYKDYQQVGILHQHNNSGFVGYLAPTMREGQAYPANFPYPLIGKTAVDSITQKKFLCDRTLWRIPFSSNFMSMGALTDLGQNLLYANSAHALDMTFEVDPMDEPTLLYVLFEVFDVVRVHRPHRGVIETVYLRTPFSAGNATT

The target of assay [5] is T3, Ad2 hexon, on wild-type human adenovirus type 2 virions (human adenovirus type 2, UniProt P03277 1-968).
T3 chain: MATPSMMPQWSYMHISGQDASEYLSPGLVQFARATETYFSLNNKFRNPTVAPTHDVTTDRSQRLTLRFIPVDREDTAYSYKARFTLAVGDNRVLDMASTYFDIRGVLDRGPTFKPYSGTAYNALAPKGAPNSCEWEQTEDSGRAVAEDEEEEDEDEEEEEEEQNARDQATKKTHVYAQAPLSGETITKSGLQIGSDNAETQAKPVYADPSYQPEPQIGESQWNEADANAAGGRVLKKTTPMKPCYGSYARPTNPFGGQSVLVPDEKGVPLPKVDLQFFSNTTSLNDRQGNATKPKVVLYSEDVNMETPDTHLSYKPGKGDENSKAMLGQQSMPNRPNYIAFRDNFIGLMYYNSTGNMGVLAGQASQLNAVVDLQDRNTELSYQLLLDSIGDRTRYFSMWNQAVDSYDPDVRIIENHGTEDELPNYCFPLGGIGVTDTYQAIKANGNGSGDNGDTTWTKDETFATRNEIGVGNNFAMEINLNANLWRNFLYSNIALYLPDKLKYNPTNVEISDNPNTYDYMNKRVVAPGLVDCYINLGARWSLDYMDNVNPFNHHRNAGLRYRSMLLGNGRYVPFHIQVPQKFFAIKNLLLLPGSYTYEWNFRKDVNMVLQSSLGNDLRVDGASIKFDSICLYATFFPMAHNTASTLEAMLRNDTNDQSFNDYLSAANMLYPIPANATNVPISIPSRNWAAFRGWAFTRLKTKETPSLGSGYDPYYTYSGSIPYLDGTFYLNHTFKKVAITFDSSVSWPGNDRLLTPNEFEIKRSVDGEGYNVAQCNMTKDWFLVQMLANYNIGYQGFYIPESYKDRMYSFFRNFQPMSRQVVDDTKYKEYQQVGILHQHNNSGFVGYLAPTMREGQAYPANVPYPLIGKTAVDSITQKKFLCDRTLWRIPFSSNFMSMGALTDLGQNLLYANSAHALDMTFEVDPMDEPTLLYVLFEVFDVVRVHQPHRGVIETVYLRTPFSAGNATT

On to B1, for which binding in assay [1] was put at a Kd of 2.7 nM. That is a single-digit nanomolar value. For the molecule B2, in assay [2], the Kd came to 14 nM. The same measure, in the same setting: with B3 the figure was 37 nM. On to B4, for which the results for the Kd in assay [3], in assay [4] and in assay [2] were 28 nM, 0.74 nM and 220 nM, respectively. Regarding B5, the Kd stood at 100 nM in assay [3], 73 nM in assay [5] and 160 nM in assay [2].

As usually defined, the Kd is the free concentration of one partner at which half of the binding sites on the other are occupied at equilibrium, for simple one-to-one binding. A high value points to lower affinity.

(Values after paper PMC9536601 (2022).)
